Experimental data as given in patent US20100267637A1, “TREATMENT OF MELANOMA WITH ALPHA THYMOSIN PEPTIDES IN COMBINATION WITH A KINASE INHIBITOR” (SciClone Pharmaceuticals, Inc., priority 2007, published 2010).
Entries after “also recorded” stand apart in the source; their conditions may differ. Where no end group is shown, it is not given here.

What was measured:
[1] = system: murine B16 melanoma cells; assay: Anti-tumor effect: tumor weight at necropsy (Day 16) in mice bearing subcutaneous B16 melanoma; format: in vivo, C57BL/6 mice
Description: (§1) The toxic effects of the dosing regimens were also monitored. […] Meanwhile 9H10 was given in two groups via i.p. on Day 3, 6 and 9. […] Tumor volume and body weight were measured every three days, and tumor weights were measured on Day 16 at the end of the study.
On the day of tumor implantation, approximately 1×10^6 cells in 0.1 mL were subcutaneously injected on the right axillary area of each mouse. The day of tumor implantation was defined as Day 0.
(§2) On Day 3, the animals were randomly assigned into nine different weight-matched and tumor-size-matched groups. Dosing was started on Day 3 using the regimen according to Table 2.
(§3) From Day 1 to Day 15, mortality and moribundity were checked twice daily, the body weights were recorded once every 3 days, and tumors were measured using a caliper once every 3 days. At the end of the study (Day 16), the animals were euthanized by CO2 asphyxiation, and the tumors were excised and weighed.
The anti-tumor effect of the test article was further evaluated with tumor weight (TW) measured on day of necropsy (Day 16). The PI of TW was calculated using the equation below:
PITW(%)=100×(TW vehicle−TW drug treated)/TW vehicle
(§4) Inter-group comparison was performed in terms of tumor volume, tumor weight and body weight, using a student's t test. P values of less than 0.05 were considered to be statistically significant.

[2] = Treatment toxicity: body weight and drug-induced animal deaths in B16 melanoma-bearing mice; format: in vivo, C57BL/6 mice; details: for body weight effect in words (loss / difference vs vehicle group): throughout the course of the study
Description: as §1, §2, §3
Toxicity of all treatment regimens was evaluated with the body weights of the study animals along with the drug-induced animal deaths. The inhibition of body weight was calculated using Excel according to the equation below:
PIBW(%)=100×(BW vehicle−BW drug treated)/BW vehicle
as §4

Substance: Thymosin Alpha-1 (Ac-SDAAVDTSSEITTKDLKEKKEVVEEAEN; ends and bridges not checked; UniProt P06454 2-29, looked up) [TA-1, 28 amino acid peptide, immunomodulator; test article (SciClone), 6 mg/kg s.c. daily]
- Tumor weight on Day 16 ([1]; animal F1): 0.63 g
- Tumor weight on Day 16 ([1]; animal F2): 0.44 g
- Tumor weight on Day 16 ([1]; animal F3): 0.45 g
- Tumor weight on Day 16 ([1]; animal F4): 0.75 g
- Tumor weight on Day 16 ([1]; animal F5): 0.08 g
- Tumor weight on Day 16 ([1]; animal M1): 0.73 g
- Tumor weight on Day 16 ([1]; animal M2): 1.30 g
- Tumor weight on Day 16 ([1]; animal M3): 2.00 g
- Tumor weight on Day 16 ([1]; animal M4): 2.20 g
- Tumor weight on Day 16 ([1]; animal M5): 1.05 g
- Tumor Weight (g) (Mean ± SD) ([1]; group mean): 0.96 ± 0.688 g
- percent inhibition of tumor weight vs vehicle ([1]; vs vehicle): 43.35%
- Body weights on Day 0 ([2]; Day 0, animal F1): 21.40 g
- Body weights on Day 0 ([2]; Day 0, animal F2): 19.20 g
- Body weights on Day 0 ([2]; Day 0, animal F3): 21.10 g
- Body weights on Day 0 ([2]; Day 0, animal F4): 20.20 g
- Body weights on Day 0 ([2]; Day 0, animal F5): 19.00 g
- Body weights on Day 0 ([2]; Day 0, animal M1): 21.60 g
- Body weights on Day 0 ([2]; Day 0, animal M2): 22.50 g
- Body weights on Day 0 ([2]; Day 0, animal M3): 22.10 g
- Body weights on Day 0 ([2]; Day 0, animal M4): 21.70 g
- Body weights on Day 0 ([2]; Day 0, animal M5): 19.80 g
- Percent inhibition of body weight vs vehicle (PIBW) ([2]; Day 0): −0.1440%
- Body Weight (g) (Mean ± SD) ([2]; Day 3 (start of dosing)): 20.44 ± 1.460 g
- Body weights on Day 3 ([2]; Day 3, animal F3): 20.40 g
- Body weights on Day 3 ([2]; Day 3, animal F4): 20.30 g
- Body weights on Day 3 ([2]; Day 3, animal F5): 17.20 g
- Body weights on Day 3 ([2]; Day 3, animal M1): 21.40 g
- Body weights on Day 3 ([2]; Day 3, animal M2): 22.20 g
- Body weights on Day 3 ([2]; Day 3, animal M3): 21.60 g
- Body weights on Day 3 ([2]; Day 3, animal M4): 21.50 g
- Percent inhibition of body weight vs vehicle (PIBW) ([2]; Day 3): 2.1073%
- Body Weight (g) (Mean ± SD) ([2]; Day 6): 21.38 ± 1.220 g
- Body weights on Day 6 ([2]; Day 6, animal F1): 22.10 g
- Body weights on Day 6 ([2]; Day 6, animal F2): 20.10 g
- Body weights on Day 6 ([2]; Day 6, animal F3): 21.80 g
- Body weights on Day 6 ([2]; Day 6, animal F4): 20.80 g
- Body weights on Day 6 ([2]; Day 6, animal F5): 20.20 g
- Body weights on Day 6 ([2]; Day 6, animal M1): 22.00 g
- Body weights on Day 6 ([2]; Day 6, animal M2): 22.90 g
- Body weights on Day 6 ([2]; Day 6, animal M3): 22.30 g
- Body weights on Day 6 ([2]; Day 6, animal M4): 22.40 g
- Body weights on Day 6 ([2]; Day 6, animal M5): 19.20 g
- Percent inhibition of body weight vs vehicle (PIBW) ([2]; Day 6): −4.8039%
- Body weights on Day 9 ([2]; Day 9, animal F1): 21.50 g
- Body weights on Day 9 ([2]; Day 9, animal F2): 19.70 g
- Body weights on Day 9 ([2]; Day 9, animal F3): 20.30 g
- Body weights on Day 9 ([2]; Day 9, animal F4): 20.40 g
- Body weights on Day 9 ([2]; Day 9, animal F5): 19.20 g
- Body weights on Day 9 ([2]; Day 9, animal M1): 21.50 g
- Body weights on Day 9 ([2]; Day 9, animal M2): 22.40 g
- Body weights on Day 9 ([2]; Day 9, animal M3): 22.00 g
- Body weights on Day 9 ([2]; Day 9, animal M4): 21.90 g
- Body weights on Day 9 ([2]; Day 9, animal M5): 19.90 g
- Percent inhibition of body weight vs vehicle (PIBW) ([2]; Day 9): −2.3028%
- Body Weight (g) (Mean ± SD) ([2]; Day 12): 21.24 ± 1.623 g
- Body weights on Day 12 ([2]; Day 12, animal F1): 21.90 g
- Body weights on Day 12 ([2]; Day 12, animal F2): 19.10 g
- Body weights on Day 12 ([2]; Day 12, animal F3): 20.70 g
- Body weights on Day 12 ([2]; Day 12, animal F5): 18.90 g
- Body weights on Day 12 ([2]; Day 12, animal M1): 22.60 g
- Body weights on Day 12 ([2]; Day 12, animal M2): 23.50 g
- Body weights on Day 12 ([2]; Day 12, animal M3): 22.70 g
- Body weights on Day 12 ([2]; Day 12, animal M4): 22.40 g
- Body weights on Day 12 ([2]; Day 12, animal M5): 19.70 g
- Percent inhibition of body weight vs vehicle (PIBW) ([2]; Day 12): 2.9694%
- Body Weight (g) (Mean ± SD) ([2]; Day 15): 22.74 ± 1.459 g
- Body weights on Day 15 ([2]; Day 15, animal F1): 24.30 g
- Body weights on Day 15 ([2]; Day 15, animal F2): 20.70 g
- Body weights on Day 15 ([2]; Day 15, animal F3): 22.30 g
- Body weights on Day 15 ([2]; Day 15, animal F4): 21.80 g
- Body weights on Day 15 ([2]; Day 15, animal F5): 21.30 g
- Body weights on Day 15 ([2]; Day 15, animal M1): 22.60 g
- Body weights on Day 15 ([2]; Day 15, animal M2): 24.50 g
- Body weights on Day 15 ([2]; Day 15, animal M3): 24.70 g
- Body weights on Day 15 ([2]; Day 15, animal M4): 23.70 g
- Body weights on Day 15 ([2]; Day 15, animal M5): 21.50 g
- Percent inhibition of body weight vs vehicle (PIBW) ([2]; Day 15): −2.7100%
- body weight effect in words (loss / difference vs vehicle group) [2]: did no cause any statistically significant loss of body weights; also recorded: did not cause any loss of body weights
- body weight effect in words (loss / difference vs vehicle group) ([2]; listed as TA-1 alone): no statistical differences in body weights
